Data as given in patent publication US10370642B2, “Hematopoietic progenitor cell populations having affinity for E-selectin / L-selectin” (priority 2000, dated 2019).

Key:
Assay type in all cases: cell-based
[1] = tested on: L-selectin; assay: Stamper-Woodruff assay of immunoprecipitated KG1a CD44 (Example 7); conditions: immunoprecipitate spotted onto glass slides
Description: To further analyze the L-selectin ligand activity of CD44, we performed Stamper-Woodruff assays using immunoprecipitated CD44 or isotype control (rat lgG)
immunoprecipitates of KG1 a cells that was spotted onto glass slides as described (Sackstein, R. & Dimitroff, C. J. (2000). Blood. 96, 2765-2774).

[2] = target: T1, E-selectin (Homo sapiens, UniProt P16581); assay: CHO-E cell rolling on immobilized immunoprecipitates, parallel-plate flow chamber; conditions: immunoprecipitates on plastic; 2.8 dynes/cm^2
T1 construct: stably transfected with full-length cDNA encoding human E-selectin; expressed in transfected cells
T1 sequence (P16581 22-610): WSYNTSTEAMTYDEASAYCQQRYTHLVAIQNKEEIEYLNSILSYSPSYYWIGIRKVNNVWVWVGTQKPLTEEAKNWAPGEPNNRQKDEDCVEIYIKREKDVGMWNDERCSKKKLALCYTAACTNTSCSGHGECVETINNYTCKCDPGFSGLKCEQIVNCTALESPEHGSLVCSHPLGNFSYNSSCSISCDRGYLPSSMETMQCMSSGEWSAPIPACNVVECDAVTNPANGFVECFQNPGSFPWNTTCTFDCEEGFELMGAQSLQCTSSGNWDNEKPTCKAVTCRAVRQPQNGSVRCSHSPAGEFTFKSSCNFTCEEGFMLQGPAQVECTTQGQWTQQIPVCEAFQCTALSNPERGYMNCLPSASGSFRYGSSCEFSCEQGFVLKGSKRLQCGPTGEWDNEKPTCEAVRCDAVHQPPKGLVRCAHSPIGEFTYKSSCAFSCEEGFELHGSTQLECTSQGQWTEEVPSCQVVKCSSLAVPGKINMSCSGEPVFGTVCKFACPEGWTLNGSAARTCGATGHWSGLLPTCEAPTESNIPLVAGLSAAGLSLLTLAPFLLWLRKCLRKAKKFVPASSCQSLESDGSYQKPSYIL
Description: CD44 was immunoprecipitated from untreated cell lysates or from cell lysates treated with N-glycosidase-F (0.8 U/ml) Vibrio cholerae neuraminidase (0.1 U/ml) or a-L-fucosidase (80 mU/ml), and PSGL-1 was immunoprecipitated from untreated cell lysates as previously described (Sackstein and Dimitroff, 2000; Dimitroff et al., 2000).
CD44 or PSGL-1 immunoprecipitates were spotted onto plastic petri dishes, fixed in 3% glutaraldehyde and incubated in 0.2M lysine to block unreactive aldehyde groups, and then non-specific binding was prevented by incubating in 100% FBS for 1 hr at RT. Fixed spots were also treated with Vibrio cholerae neuraminidase (0.1 U/ml assay medium), which was overlaid onto the spots and incubated at 37° C. for 1 hr. […] The flow rate was then increased to achieve a shear stress of 2.8 dynes/cm^2. The frequency of cells rolling per 100× magnification field was determined, and data were expressed as the mean±standard deviation of 8 fields visualized from a minimum of 3 experiments.

[3] = target: T2, P-selectin (Homo sapiens, UniProt P16109); assay: CHO-P cell rolling on immobilized immunoprecipitates, parallel-plate flow chamber; conditions: 2.8 dynes/cm^2
T2 construct: CHO-P (CHO stably transfected with human cDNA encoding full length P-selectin); expressed in transfected cells
T2 sequence (P16109 42-830): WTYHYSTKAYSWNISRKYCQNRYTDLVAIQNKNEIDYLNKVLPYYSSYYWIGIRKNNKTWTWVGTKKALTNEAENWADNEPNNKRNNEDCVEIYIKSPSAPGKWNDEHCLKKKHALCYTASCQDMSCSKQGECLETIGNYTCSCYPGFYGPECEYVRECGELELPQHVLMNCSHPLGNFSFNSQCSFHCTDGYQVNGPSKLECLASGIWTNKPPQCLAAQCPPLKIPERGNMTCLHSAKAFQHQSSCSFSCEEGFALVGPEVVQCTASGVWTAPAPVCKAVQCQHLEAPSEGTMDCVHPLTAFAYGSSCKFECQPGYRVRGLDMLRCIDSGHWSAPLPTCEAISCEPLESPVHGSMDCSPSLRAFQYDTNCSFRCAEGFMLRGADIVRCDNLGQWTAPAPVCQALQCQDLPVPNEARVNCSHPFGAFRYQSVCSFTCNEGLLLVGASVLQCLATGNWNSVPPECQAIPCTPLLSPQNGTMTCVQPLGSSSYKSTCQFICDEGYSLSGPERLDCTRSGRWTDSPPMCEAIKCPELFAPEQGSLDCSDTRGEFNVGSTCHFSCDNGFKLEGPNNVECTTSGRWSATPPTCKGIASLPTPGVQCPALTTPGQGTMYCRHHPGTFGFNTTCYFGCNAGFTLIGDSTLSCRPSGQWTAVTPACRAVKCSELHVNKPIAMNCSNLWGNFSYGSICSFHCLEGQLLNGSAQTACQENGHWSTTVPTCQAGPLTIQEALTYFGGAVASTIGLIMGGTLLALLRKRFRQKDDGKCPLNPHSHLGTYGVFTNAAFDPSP
Description: CD44 or PSGL-1 immunoprecipitates were spotted onto plastic petri dishes, fixed in 3% glutaraldehyde and incubated in 0.2M lysine to block unreactive aldehyde groups, and then non-specific binding was prevented by incubating in 100% FBS for 1 hr at RT. Fixed spots were also treated with Vibrio cholerae neuraminidase (0.1 U/ml assay medium), which was overlaid onto the spots and incubated at 37° C. for 1 hr. The protein dishes were placed in the parallel-plate flow chamber and CHO-E, CHO-P (CHO stably transfected with human cDNA encoding full length P-selectin), CHO-P cells treated with function blocking anti-P-selectin moAb (clone AK-4; Pharmingen) (10 μg/ml), CHO-E cells treated with function blocking anti-E-selectin Abs (10 μg/ml) (clone 68-5H1 1) or Mock transfectants were perfused into the chamber (2×10^6/ml H/H/Ca++) at a flow rate of 0.2 ml/min until the cells were in contact with the substrate. The flow rate was then increased to achieve a shear stress of 2.8 dynes/cm^2. The frequency of cells rolling per 100× magnification field was determined, and data were expressed as the mean±standard deviation of 8 fields visualized from a minimum of 3 experiments.

KG1a CD44: glycoform of CD44 with HECA-452 reactive sialylated, fucosylated N-glycans, immunoprecipitated from KG1a cells with Hermes-1
L-selectin-mediated lymphocyte adherence [1]: 362±15 bound cells/field
E-selectin ligand activity (CHO-E cell rolling) [2]: exhibited E-selectin ligand activity over a range of shear stress
P-selectin ligand activity (CHO-P cell rolling) [3]: not a P-selectin ligand
